The text below walks through data of patent publication US10378034B2, “Use of a N-acetylneuraminate lyase derived from the bacterium Aliivibrio salmonicida in the production of neuraminic acid and derivatives thereof” (Universitetet i Tromsø-Norges Arktiske Universitet, priority 2014, dated 2019).

Format in all cases: biochemical
The nature of data set [1]: Temperature shift experiment on production yield of Neu5Ac. The settings on record: shifting reaction temperature from 23° C. to 4° C.; 50 mM pyruvate, 5 mM ManNAc. As to the method: The effect of substrate ratio on the conversion yield of Neu5Ac was studied by varying the pyruvate concentration while the concentration of ManNAc was kept constant. The pyruvate concentration ranged from 2.5 to 70 mM, whereas the ManNAc concentration was 5 mM, resulting in a pyruvate:ManNAc ratio ranging from 0.5 to 14. The condensation reaction mixture containing different ratios of pyruvate and ManNAc along with 124 mM HEPES buffer pH 8.0 and enzyme was incubated at room temperature for 7.5 h. […] Thus, a temperature shift experiment was carried out to see how much the Neu5Ac production could be increased by altering the equilibrium once it had been achieved. For a temperature shift experiment, the reaction mixture (enzyme, 50 mM pyruvate, 5 mM ManNAc, 124 mM HEPES buffer pH 8.0) was incubated at room temperature for 7.5 h and after reaching equilibrium it was shifted to 4° C. and incubated for 15 h. As a control, one reaction was kept at room temperature and another at 4° C. for all the time. The difference in yield between the temperature shifted and non-shifted reactions were calculated. The standard TBA assay was used to assess the activity.

The nature of data set [2]: TBA assay, condensation activity: pH and temperature profiles. As to the method: Both the condensation and cleavage activities of NAL were assessed using the modified thiobarbituric acid (TBA) assay developed by Aminoff (1961) and Warren (1959). The condensation activity was determined by incubating 50 μl of a reaction mixture containing 15 mM sodium pyruvate, 15 mM ManNAc, 124 mM HEPES pH 8.0 and different concentrations of enzyme depending on assay type at selected temperatures for the required amount of time. The reaction was terminated by adding 137 μl 2.5 mg/ml sodium periodate in 57 mM H2SO4, followed by incubation at 37° C. for 15 min with shaking at 1350 rpm. Sodium arsenite (50 μl, 25 mg/ml sodium arsenite in 0.5 M HCl) was added resulting in brown color. The tubes were shaken manually until the brown color disappeared. 2-thiobarbituric acid solution (100 μl, 71 mg/ml adjusted to pH 9.0) was subsequently added, and the tubes were incubated in boiling water for 7.5 min. […] The organic phase containing the red chromophore (200 μl) was used for measurement of absorbance at 549 nm in a spectrophotometer (SpectraMax M2e, Molecular Devices). […]
pH profiles were determined by assaying the enzyme in triplicate for both condensation and cleavage directions at pH values ranging from 5.5 to 11.0 with 0.5 pH unit intervals. […] Temperature profiles were determined for both directions by assaying the enzyme in triplicate from 4 to 80° C. in HEPES buffer pH 8.0. […]

Data set [3] in a line: Integrated reaction: Neu5Ac production from GlcNAc and pyruvate at alkaline pH (TBA assay). As to the method: For ManNAc reactions, the buffer used was HEPES, pH 8.0. […] Experiments were performed in triplicate. For ManNAc experiments, aliquots were sampled after 0.5, 1.0, 1.5, 2.5 and 4.0 h. For GlcNAc experiments, aliquots were sampled after 12, 24, 36, 48 and 72 h. Reactions were terminated by addition of 2 μl concentrated H2SO4. The time needed for N-acetylneuraminic acid (Neu5Ac) production to get started under these conditions was known to take longer time based on initial test experiments. The thiobarbituric acid (TBA) assay procedure was followed to determine the amount of Neu5Ac produced. The activity was corrected for a blank value. The blank contained all the reaction components except for enzyme.
Initially, also glycine buffer was tested at pH 10.5 and pH 11.0 for the reactions with GlcNAc. GlcNAc will chemically epimerize to ManNAc at pH values above 9.0, which the enzyme will use as substrate for the production of Neu5Ac. The epimerization is pH dependent and will increase with increasing pH. Production of Neu5Ac was higher in CAPS buffer compared to glycine buffer, so this was chosen for further experiments.

Data set [4] is described as follows: Comparative specific activity, cleavage reaction (TBA assay). Here is the method: The cleavage activity was determined by incubating 50 μl of a reaction mixture containing 5 mM Neu5Ac, 124 mM HEPES pH 8.0 and different concentrations of enzyme depending on assay type at selected temperatures for the required amount of time. Termination of the reactions and subsequent steps of the assay are as described above. The decrease in absorbance is correlated to the increase in cleavage activity.
Standard reaction mixtures were incubated at room temperature for 1 h before being subjected to the TBA assay.

B1: AsNAL: N-acetylneuraminate lyase isolated from the psychrophilic bacterium Aliivibrio salmonicida LFI1238, recombinantly expressed in E. coli (protein, listed as Aliivibrio salmonicida)
chain: MKKLTGLIAAPHTPFDSSSNVNFEEIDKIAKHLINDGVKGIYVCGTTGEGIHCSVEERKAIAERWVSACNHKLDIIVHTGALSIVDTLELTRHADTLDILATSAIGPCFFKPGSVSDLVEYCATIAAAAPSKGFYYYHSGMSGVNLNMEEFLIQADKRIPNLSGLKFNSGDLYEYQRCLRACDGKFDVPFGVDEFLPGALAVGAKSAVGSTYNYAAPHFNSIIEAFNKGDHDAVFNKMTNVIELIRVLVEFGGVAAGKIAMELHDINAGDPRLPLMPLSAEQKLTVVEKMRAANFLK
Turning to B1, the “increase in yield of Neu5Ac” value in data set [1] was 30%. In data set [2] (HEPES buffer pH 8.0, 30 min), the “optimal temperature, condensation reaction” value came out at 20 °C. Moreover, in data set [2] (at 10° C., relative to highest value), the condensation activity retained is listed as 75%. Besides, in data set [3] (pyruvate and GlcNAc 4:1, CAPS pH 11.0, 48 h), the “production of Neu5Ac relative to highest amount obtained with pyruvate and ManNAc 4:1 at pH 8.0” value is recorded as “around 60%”. The “production of Neu5Ac (in words)” value in data set [3] (pyruvate and GlcNAc, CAPS pH 11.5) is on record as “able to produce Neu5Ac in the same range as at pH 11.0”. In addition, the “specific activity of the cleavage reaction, higher than EcNAL” value is listed as 25% in data set [4] (4° C.), 35% in data set [4] (23° C.) and 35% in data set [4] (37° C.).
